Data published in patent US7732568B2, “Methods for preventing and treating Alzheimer's disease” (AFFIRIS Forschungs-und Entwicklungs GmbH, priority 2003, dated 2010).

Legend:
[1] = molecular target: DAEFRH-specific monoclonal antibody (mAb) produced according to example 1; test: competition ELISA: soluble peptide vs plate-bound DAEFRH-C-BSA for biotinylated mAb, FIG. 2
[2] = molecular target: DAEFRH-specific monoclonal antibody (mAb) produced according to example 1; test: competition ELISA: soluble peptide vs plate-bound DAEFRH-C-BSA for biotinylated mAb, FIG. 3
[3] = molecular target: DAEFRH-specific monoclonal antibody (mAb) produced according to example 1; test: competition ELISA: soluble peptide vs plate-bound DAEFRH-C-BSA for biotinylated mAb, FIG. 4
[4] = molecular target: DAEFRH-specific monoclonal antibody (mAb) produced according to example 1; test: competition ELISA: soluble peptide vs plate-bound DAEFRH-C-BSA for biotinylated mAb, FIG. 5

Row | Binder | IC50 [1] [µg/mL] | IC50 [4] [µg/mL] | also measured
1 | DKELRIC [Peptide 3001 DKELRI] | < 0.5 | – | –
2 | EAEFRGC [Peptide 3006 EAEFRG] | < 0.5 | – | –
3 | DWELRIC [Peptide 3002 DWELRI] | > 0.5 | – | –
4 | YAEFRGC [Peptide 3005 YAEFRG] | > 0.5 | – | –
5 | ELEFRGC [Peptide 3008 ELEFRG] | – | – | IC50 [2]: < 5 µg/mL
6 | SFEFRGC [Peptide 3009 SFEFRG] | – | – | IC50 [2]: < 5 µg/mL
7 | SWEFRTC [Peptide 4002 SWEFRT] | – | – | IC50 [3]: < 0.4 µg/mL
8 | DKELKIC [Peptide 1236 DKELKI] | – | > 5 | –
9 | DRELKIC [Peptide 1237 DRELKI] | – | > 5 | –
10 | EYEFRGC [Peptide 1239 EYEFRG] | – | > 0.5 | –
